One test addresses HLA-B*54:01. Nature of the test: IEDB peptide-MHC binding, purified MHC/competitive/radioactivity; filed as Kd, often an IC50 or EC50 that approximates it; ≥ and ≤ were set here for values at or beyond the usual limits of such assays.
The next test concerns the target HLA-B*07:02. The test is described as above.
The next test addresses HLA-B*53:01. Described as above.
The next test deals with HLA-B*51:01. Described as above.
For another test, the target named is HLA-B*35:01. The test is described as above.
A further test has as its target HLA-A*68:02. The description is as above.
In the next test the target is HLA-A*02:03. The description is as above.
The next test deals with HLA-A*02:02. Described as above.
Test [1] deals with HLA-A*02:01. Described as above.
The target of another test is HLA-A*02:06. Described as above.
For the next test, the target named is HLA-A*24:03. The test can be described thus: IEDB peptide-MHC binding, purified MHC/direct/fluorescence; filed as Kd, often an IC50 or EC50 that approximates it; ≥ and ≤ were set here for values at or beyond the usual limits of such assays. The following applies: source organism: Amur virus.
In another test the target is HLA-A*30:02. The test can be described thus: IEDB peptide-MHC binding, purified MHC/competitive/radioactivity; filed as Kd, often an IC50 or EC50 that approximates it; ≥ and ≤ were set here for values at or beyond the usual limits of such assays. The following applies: source organism: Dengue virus 3 Martinique/1243/1999.
The target in a further test is HLA-B*15:01. Described as above.
A further test addresses HLA-A*26:01. Described as above.
Another test addresses HLA-A*01:01. The test is described as above.
The next test deals with HLA-A*68:01. The description is as above. The following applies: source organism: Dengue virus 3 Martinique/1243/1999.
A further test concerns the target HLA-A*11:01. Nature of the test: IEDB peptide-MHC binding, purified MHC/competitive/fluorescence; ≥ and ≤ were set here for values at or beyond the usual limits of such assays.
Test [2] concerns the target HLA-A*02:01. Described as above. The conditions noted are these: source organism: Zaire ebolavirus.
Another test deals with HLA-A*24:02. The test is described as above. The following applies: source organism: Zaire ebolavirus.
Where [3] appears, read: source organism: Vaccinia virus WR.
Setting [4] is: source organism: Dengue virus 2 Jamaica/1409/1983.
Where [5] appears, read: source organism: Trypanosoma cruzi.
[6] abbreviates: source organism: Mammarenavirus juninense.
Where [7] appears, read: source organism: SARS coronavirus Tor2.
[8] abbreviates: source organism: Dengue virus 3 Martinique/1243/1999.
The mark [9] stands for this setting: source organism: Dengue virus 1 Brazil/97-11/1997.
The mark [10] stands for this setting: source organism: Triticum aestivum.
[11] abbreviates: source organism: Hepacivirus hominis.

Some results are limits rather than exact numbers.

Usually Kd stands for a measure of binding affinity in units of concentration. The term IC50 denotes the concentration at which inhibition is half-maximal.

Take LPTLFGRGV: the dissociation constant Kd with HLA-B*54:01 (setting [3]) was 1.99 nM; with HLA-B*07:02 (setting [3]), 8.32 nM; in the test with HLA-B*53:01 (setting [3]), 956 nM; with HLA-B*51:01 (setting [3]) it was 6.04 nM; in the test with HLA-B*35:01 (setting [3]), 1280 nM.
In the case of LVAFLRFLTI, the Kd with HLA-A*68:02 (setting [4]) worked out at 103 nM.
For LVGLWGAAAL, the Kd stood at 95.9 nM with HLA-A*02:03 (setting [5]); 89.7 nM with HLA-A*02:02 (setting [5]); 689 nM with HLA-A*02:01 [1] (setting [5]); 397 nM with HLA-A*02:06 (setting [5]); 5250 nM with HLA-A*68:02 (setting [5]).
With MAVELFQTI, the Kd with HLA-B*54:01 (setting [6]) was determined as 188 nM; with HLA-B*07:02 (setting [6]) it was 7280 nM; with HLA-B*53:01 (setting [6]), 6.99 nM; with HLA-B*51:01 (setting [6]) it was 8.54 nM; in the test with HLA-B*35:01 (setting [6]), 61 nM.
In the case of MHTDLELDF, in the test with HLA-A*24:03, the Kd is 4.85 µM.
For MPYVFTLLF, the Kd in the test with HLA-B*54:01 (setting [7]) is 30.6 nM; with HLA-B*07:02 (setting [7]), 109 nM; in the test with HLA-B*53:01 (setting [7]), 0.124 nM; with HLA-B*51:01 (setting [7]), 4.07 nM; with HLA-B*35:01 (setting [7]), 0.59 nM.
In the case of MTIDLDPVIY, the dissociation constant (Kd) with HLA-A*30:02 is ≥ 25.4 µM; with HLA-B*15:01 (setting [8]), 5.32 nM; with HLA-A*26:01 (setting [8]), 5.59 nM; in the test with HLA-A*01:01 (setting [8]), 2.99 µM; in the test with HLA-A*68:01, 11.9 nM; in the test with HLA-B*35:01 (setting [8]) it was 24.8 nM.
On to MTTEDMLSV, for which the Kd with HLA-A*26:01 (setting [9]) is 1260 nM; with HLA-A*01:01 (setting [9]), 5.06 µM; with HLA-A*02:06 (setting [9]), 10.6 nM; with HLA-A*68:02 (setting [9]) it was 10.6 nM.
For the sequence NAICSAVPV, the dissociation constant (Kd) in the test with HLA-A*68:02 (setting [9]) came out at 3.19 nM.
For NLPIYSEEIV, the Kd in the test with HLA-A*68:02 (source organism: Homo sapiens) was found to be 982 nM.
As to NTPEGIIPAL, the equilibrium dissociation constant (Kd) with HLA-A*68:02 (setting [9]) was determined as 20.5 nM.
QIAMTDTTPF: the Kd in the test with HLA-B*15:01 (setting [9]) was 7.04 nM.
QMANGIALGL: the dissociation constant Kd with HLA-B*15:01 (setting [8]) came to 191 nM.
With QPFPQPQL, the dissociation constant (Kd) in the test with HLA-B*54:01 (setting [10]) was ≥ 20300 nM; with HLA-B*07:02 (setting [10]) it was 583 nM; in the test with HLA-B*53:01 (setting [10]) it was ≥ 87700 nM; with HLA-B*51:01 (setting [10]) it was 2160 nM; in the test with HLA-B*35:01 (setting [10]) it was ≥ 87800 nM.
For QPFPQPQLPY, in that order: ≥ 41000 nM, 552 nM, 256 nM, 1370 nM and 9.37 nM.
SGTEKEFLR: the IC50 with HLA-A*11:01 (source organism: Vaccinia virus) is ≥ 412 µM.
On to TQVPFCSHHF, for which, in the test with HLA-B*15:01 (setting [4]), the dissociation constant (Kd) was 2.37 nM.
Turning to TSHNILVEV, the Kd in the test with HLA-A*68:02 (setting [9]) came to 7.42 nM.
With VLSDFRTWL, the dissociation constant (Kd) in the test with HLA-A*02:03 (setting [11]) was 7.18 nM; with HLA-A*02:02 (setting [11]) it was 1.72 nM; in the test with HLA-A*02:01 [1] (setting [11]), 1.78 nM; with HLA-A*02:06 (setting [11]), 305 nM; in the test with HLA-A*68:02 (setting [11]), 5280 nM.
For VPAAIMMIL, the Kd with HLA-B*54:01 (setting [3]) was ≥ 78100 nM; with HLA-B*07:02 (setting [3]) it was ≥ 76900 nM; with HLA-B*53:01 (setting [3]) it was 19300 nM; in the test with HLA-B*51:01 (setting [3]), ≥ 77500 nM; with HLA-B*35:01 (setting [3]), 18700 nM.
For VPLPCQLMYA, in that order: 0.136 nM, 7430 nM, 460 nM, 621 nM and 2330 nM.
On to VPYNMRVIHF, for which the Kd in the test with HLA-B*54:01 (setting [7]) was determined as 505 nM; in the test with HLA-B*07:02 (setting [7]), 149 nM; with HLA-B*53:01 (setting [7]), 688 nM; in the test with HLA-B*51:01 (setting [7]), 5590 nM; in the test with HLA-B*35:01 (setting [7]), 1440 nM.
YKLDISEAT: the IC50 was ≥ 158 µM with HLA-A*02:01 [2], ≥ 139 µM in the test with HLA-A*11:01 (source organism: Zaire ebolavirus) and 29.8 µM with HLA-A*24:02.

The values are drawn from the Immune Epitope Database (IEDB).
